Data on one molecule can be found in patent US20170356905 (published 2017).

This data set has as its target alpha-thrombin (Homo sapiens, UniProt P00734;P00734 P00734:328-363,P00734:364-622). Put plainly: competition; collected complementary strand (SEQ 3) increased with thrombin 0-100 ppm; HEPES/NaCl/KCl/MgCl2/Tween 20 buffer, room temperature.

GGTTGGTGTGGTTGGTTTTT (ssDNA, 3'-biotin; five T added at 3' end (included in SEQ)) [thrombin aptamer TA-3bio]: the binding result was “binds”.
